Results on one molecule are retold here after US8525237 (University of California, dated 2013).

The experiment has as its target transferrin receptor (TfR) (UniProt P02786 89-760, limits assumed). Kind of experiment: phage-based ELISA (assay not given). A general note: ELISA stands for enzyme-linked immunosorbent assay.

Ends that are not written are not given here.

Sequence of transferrin receptor (TfR) (P02786 89-760 limits assumed): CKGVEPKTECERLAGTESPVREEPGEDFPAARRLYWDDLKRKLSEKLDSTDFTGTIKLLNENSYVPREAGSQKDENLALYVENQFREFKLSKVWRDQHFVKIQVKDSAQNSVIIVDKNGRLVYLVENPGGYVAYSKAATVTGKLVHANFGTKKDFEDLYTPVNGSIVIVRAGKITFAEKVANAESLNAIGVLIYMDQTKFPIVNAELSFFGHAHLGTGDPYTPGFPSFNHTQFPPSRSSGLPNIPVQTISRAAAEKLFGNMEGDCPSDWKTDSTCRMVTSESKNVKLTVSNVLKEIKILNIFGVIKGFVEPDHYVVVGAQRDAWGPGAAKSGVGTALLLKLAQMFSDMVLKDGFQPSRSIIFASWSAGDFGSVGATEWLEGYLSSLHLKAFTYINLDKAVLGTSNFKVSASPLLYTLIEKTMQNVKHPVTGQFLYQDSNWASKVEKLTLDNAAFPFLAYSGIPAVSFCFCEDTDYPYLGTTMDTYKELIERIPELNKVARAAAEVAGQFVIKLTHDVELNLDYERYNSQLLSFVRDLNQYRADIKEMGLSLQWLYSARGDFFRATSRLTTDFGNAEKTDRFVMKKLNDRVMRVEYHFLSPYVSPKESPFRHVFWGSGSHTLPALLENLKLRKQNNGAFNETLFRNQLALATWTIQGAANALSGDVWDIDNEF

B1: PSMA-3 peptide displayed on M13 phage (peptide, not shown: large carriers)
peptide: SECVEVFQNSCDW
modifications: not fully specified; cysteine pairing not given here
notes: Tested on phage in ELISA and as phage encapsulated in PEDOT nanowires; also called second generation peptide; PSMA-3 viruses
As to B1, the binding result is given as “no binding”.
